Stoichiometry N and stoichiometry N (ParD2 per ParE2 (printed as 6:2)) data for 2 substances are collected here from doi:10.1101/2021.03.22.436508.

For assay [1], the target named is Vibrio cholerae ParD2:ParE2 6:2 hetero-octameric complex (Vibrio cholerae biovar El Tor strain N16961). The assay can be described thus: native MS.
Assay [2] deals with Vibrio cholerae ParE2 toxin with C-terminal histidine tag (Vibrio cholerae biovar El Tor strain N16961). Put plainly: SAXS.
For assay [3] the target is unchanged. The assay can be described thus: native MS.
Assay [4] concerns the target Vibrio cholerae ParD2 antitoxin (Vibrio cholerae biovar El Tor strain N16961). The assay can be described thus: native MS.
Assay [5] concerns the target Vibrio cholerae ParE2 toxin with C-terminal histidine tag (Vibrio cholerae biovar El Tor strain N16961). Put plainly: SEC-MALS.
The target of assay [6] is Vibrio cholerae ParD2 antitoxin (Vibrio cholerae biovar El Tor strain N16961). Put plainly: crystal structure.
The target in assay [7] is Vibrio cholerae ParE2 toxin with C-terminal histidine tag (Vibrio cholerae biovar El Tor strain N16961). Put plainly: crystal structure.
In assay [8] the target is Vibrio cholerae ParD2 antitoxin (Vibrio cholerae biovar El Tor strain N16961). The assay can be described thus: crystal structure. This is another data set of the same source.

The term stoichiometry N denotes the number of molecules, sites or subunits per partner or assembly.

As to “Vibrio cholerae ParD2:ParE2 6:2 hetero-octameric complex”, in assay [1], the stoichiometry N stood at 2.

Consider “Vibrio cholerae ParD2 antitoxin (natural protein)”, for which the stoichiometry N (ParD2 per ParE2 (printed as 6:2)) in assay [2], in assay [3], in assay [5] and in assay [7] was 3 in each case. Further, the stoichiometry N worked out at 2 in assay [4], 6 in assay [6] and 2 in assay [8].
